Data: patent US12060424 (AMUNIX PHARMACEUTICALS, dated 2024)

Key:
[1] = molecular target: T1, human EpCAM expressed on cells (CHO cells stably transfected with human EpCAM); EpCAM-positive human tumor … (human, UniProt P16422 24-314); test: cell-based or functional assay
T1 sequence (looked up): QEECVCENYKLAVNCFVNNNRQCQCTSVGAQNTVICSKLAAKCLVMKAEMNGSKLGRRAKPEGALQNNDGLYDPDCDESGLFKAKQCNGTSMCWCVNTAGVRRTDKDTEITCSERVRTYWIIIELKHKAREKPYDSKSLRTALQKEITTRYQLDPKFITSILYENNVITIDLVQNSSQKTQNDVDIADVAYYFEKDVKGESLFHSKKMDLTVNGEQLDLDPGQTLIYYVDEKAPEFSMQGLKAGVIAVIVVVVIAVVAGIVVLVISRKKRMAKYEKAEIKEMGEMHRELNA

[2] = molecular target: recombinant human CD3 epsilon & delta (rhCD3ε & δ), Creative BioMart cat #CD3E&CD3D-219H (human) (UniProt P07766); test: sandwich ELISA: rhCD3ε & δ coated, biotinylated anti-XTEN antibody detection
recombinant human CD3 epsilon & delta (rhCD3ε & δ), Creative BioMart cat #CD3E&CD3D-219H (human), sequence (P07766 23-126, stated change not applied, chain 1 of 2): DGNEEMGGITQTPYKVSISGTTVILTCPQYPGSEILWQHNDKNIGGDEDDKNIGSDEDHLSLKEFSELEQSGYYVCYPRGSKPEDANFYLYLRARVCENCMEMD
recombinant human CD3 epsilon & delta (rhCD3ε & δ), Creative BioMart cat #CD3E&CD3D-219H (human), sequence (P04234 22-105, stated change not applied, chain 2 of 2, further chain): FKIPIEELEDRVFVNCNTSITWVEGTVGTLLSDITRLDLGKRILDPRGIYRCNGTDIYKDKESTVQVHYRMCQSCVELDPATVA

EC50 [2]: 0.031 µg/mL
B1: AC1684 protease-untreated anti-EpCAM×anti-CD3 ProTIA (bispecific antibody)
chain: DIQMTQSPSSLSASVGDRVTITCRSTKSLLHSNGITYLYWYQQKPGKAPKLLIYQMSNLASGVPSRFSSSGSGTDFTLTISSLQPEDFATYYCAQNLEIPRTFGQGTKVEIKGATPPETGAETESPGETTGGSAESEPPGEGQVQLVQSGPGLVQPGGSVRISCAASGYTFTNYGMNWVKQAPGKGLEWMGWINTYTGESTYADSFKGRFTFSLDTSASAAYLQINSLRAEDTAVYYCARFAIKGDYWGQGTLLTVSSGGGGSDIQMTQSPSSLSASVGDRVTITCRASQDIRNYLNWYQQKPGKAPKLLIYYTSRLESGVPSRFSGSGSGTDYTLTISSLQPEDFATYYCQQGNTLPWTFGQGTKVEIKGATPPETGAETESPGETTGGSAESEPPGEGEVQLVESGGGLVQPGGSLRLSCAASGYSFTGYTMNWVRQAPGKGLEWVALINPYKGVSTYNQKFKDRFTISVDKSKNTAYLQMNSLRAEDTAVYYCARSGYYGDSDWYFDVWGQGTLVTVSSGTAEAASASGESGRAANTEPPELGAGPGSPAGSPTSTEEGTSESATPESGPGTSTEPSEGSAPGSPAGSPTSTEEGTSTEPSEGSAPGTSTEPSEGSAPGTSESATPESGPGSEPATSGSETPGSEPATSGSETPGSPAGSPTSTEEGTSESATPESGPGTSTEPSEGSAPGTSTEPSEGSAPGSPAGSPTSTEEGTSTEPSEGSAPGTSTEPSEGSAPGTSESATPESGPGTSTEPSEGSAPGTSESATPESGPGSEPATSGSETPGTSTEPSEGSAPGTSTEPSEGSAPGTSESATPESGPGTSESATPESGPGSPAGSPTSTEEGTSESATPESGPGSEPATSGSETPGTSESATPESGPGTSTEPSEGSAPGTSTEPSEGSAPGTSTEPSEGSAPGTSTEPSEGSAPGTSTEPSEGSAPGTSTEPSEGSAPGSPAGSPTSTEEGTSTEPSEGSAPGTSESATPESGPGSEPATSGSETPGTSESATPESGPGSEPATSGSETPGTSESATPESGPGTSTEPSEGSAPGTSESATPESGPGSPAGSPTSTEEGSPAGSPTSTEEGSPAGSPTSTEEGTSESATPESGPGTSTEPSEGSAPGTSESATPESGPGSEPATSGSETPGTSESATPESGPGSEPATSGSETPGTSESATPESGPGTSTEPSEGSAPGSPAGSPTSTEEGTSESATPESGPGSEPATSGSETPGTSESATPESGPGSPAGSPTSTEEGSPAGSPTSTEEGTSTEPSEGSAPGTSESATPESGPGTSESATPESGPGTSESATPESGPGSEPATSGSETPGSEPATSGSETPGSPAGSPTSTEEGTSTEPSEGSAPGTSTEPSEGSAPGSEPATSGSETPGTSESATPESGPGTSTEPSEGSAPGHHHHHH
EC50 (pM), caspase 3/7 cytotoxicity, PBMC with HCT-116 cells 10:1 [1]: 32 pM
EC50 (pM), caspase 3/7 cytotoxicity, PBMC with HPAF-II cells 10:1 [1]: 24 pM
EC50 (pM), caspase 3/7 cytotoxicity, PBMC with MDA-MB-231 cells 10:1 [1]: 12200 pM
